# Data: US20120039865A1, “IDENTIFICATION OF SORTILIN AS A NEURONAL RECEPTOR FOR THE FRONTOTEMPORAL DEMENTIA PROTEIN, PROGRANULIN” (Yale University, priority 2008, published 2012)
# Molecular target: endogenous mouse sortilin (Sort1) of mouse brain lysate, mouse cortical neurons and mice in vivo (mouse) (UniProt Q6PHU5)
# Assay: cell-based or functional assay
# Chain of endogenous mouse sortilin (Sort1) of mouse brain lysate, mouse cortical neurons and mice in vivo (mouse) (Q6PHU5 74-825 limits assumed): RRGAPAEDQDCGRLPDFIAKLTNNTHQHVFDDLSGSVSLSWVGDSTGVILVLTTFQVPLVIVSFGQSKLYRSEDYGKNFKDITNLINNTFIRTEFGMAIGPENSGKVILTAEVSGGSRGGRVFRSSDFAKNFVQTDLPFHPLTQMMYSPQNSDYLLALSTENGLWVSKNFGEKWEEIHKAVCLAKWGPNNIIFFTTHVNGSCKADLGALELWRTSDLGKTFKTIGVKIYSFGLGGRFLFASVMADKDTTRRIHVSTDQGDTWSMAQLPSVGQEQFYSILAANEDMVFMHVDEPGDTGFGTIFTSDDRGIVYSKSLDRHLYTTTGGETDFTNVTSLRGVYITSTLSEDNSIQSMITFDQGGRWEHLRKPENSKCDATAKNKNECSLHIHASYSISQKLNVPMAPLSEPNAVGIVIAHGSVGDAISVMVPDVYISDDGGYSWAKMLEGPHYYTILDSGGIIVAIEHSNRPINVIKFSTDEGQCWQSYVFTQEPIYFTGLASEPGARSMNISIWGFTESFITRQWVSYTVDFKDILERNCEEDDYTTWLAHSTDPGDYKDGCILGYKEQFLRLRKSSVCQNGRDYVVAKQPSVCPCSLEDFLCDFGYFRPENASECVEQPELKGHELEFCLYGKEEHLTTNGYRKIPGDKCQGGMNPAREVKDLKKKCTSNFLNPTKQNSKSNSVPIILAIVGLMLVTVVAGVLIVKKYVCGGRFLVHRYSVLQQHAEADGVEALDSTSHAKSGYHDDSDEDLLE
substance,measurement,value
endogenous mouse PGRN (serum and brain of mice) (from UniProt P28798 18-589) (ligand),fold-increase in PGRN level in brain of sortilin -/- mice,3 fold
same,fold-increase in PGRN level in serum of sortilin -/- mice (immunoblot),4 fold
